In the DeepSol protein solubility set:

Test: soluble on expression in E. coli; label from the status in PepcDB or PDB records

Soluble on expression in E. coli, soluble:
MGSSHHHHHHGSTKYALVGDVGGTNARLALCDIASGEISQAKTYSGLDYPSLEAVIRVYLEEHKVEVKDGCIAIACPITGDWVAMTNHTWAFSIAEMKKNLGFSHLEIINDFTAVSMAIPMLKKEHLIQFGGAEPVEGKPIAVYGAGTGLGVAHLVHVDKRWVSLPGEGGHVDFAPNSEEEAIILEILRAEIGHVSAERVLSGPGLVNLYRAIVKADNRLPENLKPKDITERALADSCTDCRRALSLFCVIMGRFGGNLALNLGTFGGVFIAGGIVPRFLEFFKASGFRAAFEDKGRFKEYVHDIPVYLIVHDNPGLLGSGAHLRQTLGHIL, MGSSHHHHHHSSGLVPRGSAVPLCKQALEDLEKTSGHDHPDVATMLNILALVYRDQNKYKEAAHLLNDALAIREKTLGKDHPAVAATLNNLAVLYGKRGKYKEAEPLCKRALEIREKVLGKFHPDVAKQLSNLALLCQNQGKAEEVEYYYRRALEIYATRLGPDDPNVAKTKNNLASCYLKQGKYQDAETLYKEILTRAHEKEFGSVNGDNKPIWMHAEEREESKDKRRDSAPYGEYGSWYKACKVDSPTVNTTLRSLGALYRRQGKLEAAHTLEDCASRNRK, MGSSHHHHHHSSGLVPRGSGDYDYLIKLLALGDSGVGKTTFLYRYTDNKFNPKFITTVGIDFREKRVVYNAQGPNGSSGKAFKVHLQLWDTAGQERFRSLTTAFFRDAMGFLLMFDLTSQQSFLNVRNWMSQLQANAYCENPDIVLIGNKADLPDQREVNERQARELADKYGIPYFETSAATGQNVEKAVETLLDLIMKRMEQCVEKTQIPDTVNGG, MGSSHHHHHHSSGLVPRGSHGLVPRGSHMSDDMSMGLPSSAGEHGVLRSMQEVAMSSQEASKMLRTYNIAWWGNNYYDVNELGHISVCPDPDVPEARVDLAQLVKTREAQGQRLPALFCFPQILQHRLRSINAAFKRARESYGYNGDYFLVYPIKVNQHRRVIESLIHSGEPLGLEAGSKAELMAVLAHAGMTRSVIVCNGYKDREYIRLALIGEKMGHKVYLVIEKMSEIAIVLDEAERLNVVPRLGVRARLASQGSGKWQSSGGEKSKFGLAATQVLQLVETLREAGRLDSLQLLHFHLGSQMANIRDIATGVRESARFYVELHKLGVNIQCFDVGGGLGVDYEGTRSQSDCSVNYGLNEYANNIIWAIGDACEENGLPHPTVITESGRAVTAHHTVLVSNIIGVERNEYTVPTAPAEDAPRALQSMWETWQEMHEPGTRRSLREWLHDSQMDLHDIHIGYSSGIFSLQERAWAEQLYLSMCHEVQKQLDPQNRAHRPIIDELQERMADKMYVNFSLFQSMPDAWGIDQLFPVLPLEGLDQVPERRAVLLDITCDSDGAIDHYIDGDGIATTMPMPEYDPENPPMLGFFMVGAYQEILGNMHNLFGDTEAVDVFVFPDGSVEVELSDEGDTVADMLQYVQLDPKTLLTQFRDQVKKTDLDAELQQQFLEEFEAGLYGYTYLEDE, MGSSHHHHHHSSGLVPRGSHMALGSGVVPFENLQIEEGIITDAEVARFDNIRQGLDFGYGPDPLAFVRWHYDKRKNRIYAIDELVDHKVSLKRTADFVRKNKYESARIIADSSEPRSIDALKLEHGINRIEGAKKGPDSVEHGERWLDELDAIVIDPLRTPNIAREFENIDYQTDKNGDPIPRLEDKDNHTIDATRYAFERDMKKGGVSLWG, MGSSHHHHHHSSGLVPRGSHMASKSFQLLEPYNIKANLRPYQIKGFSWMRFMNKLGFGICLADDMGLGKTLQTIAVFSDAKKENELTPSLVICPLSVLKNWEEELSKFAPHLRFAVFHEDRSKIKLEDYDIILTTYAVLLRDTRLKEVEWKYIVIDEAQNIKNPQTKIFKAVKELKSKYRIALTGTPIENKVDDLWSIMTFLNPGLLGSYSEFKSKFATPIKKGDNMAKEELKAIISPFILRRTKYDKAIINDLPDKIETNVYCNLTPEQAAMYKAEVENLFNNIDSVTGIKRKGMILSTLLKLKQIVDHPALLKGGEQSVRRSGKMIRTMEIIEEALDEGDKIAIFTQFVDMGKIIRNIIEKELNTEVPFLYGELSKKERDDIISKFQNNPSVKFIVLSVKAGGFGINLTSANRVIHFDRWWNPAVEDQATDRVYRIGQTRNVIVHKLISVGTLEEKIDQLLAFKRSLFKDIISSGDSWITELSTEELRKVIELSVGGY
